# According to the supplement of paper PMC10567573:
# B1: DYRK1B (parent)
# chain: YQGPGTRRLQEVLGVQTGGPGGRR
# B2: LMNB1 (parent)
# chain: LYKEELEQTYHAKLENARLSSEMN
# Variants of: B1
# Test: protein stability index of a GFP-peptide fusion (GPS, HEK-293T) (PSI 1-6); higher = more stable
# Details: c terminus: a fixed tail appended
# 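Further: lentivirally expressed fusions sorted by FACS into six bins by GFP to DsRed ratio, PSI derived from sequencing read proportions per bin multiplied by bin number.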
row,Variant,protein stability index
1,Q16I,1.74
2,Q16T,2.78
3,Q16C,2.1
4,Q16K,3.55
5,Q16P,2.77
6,G18W,2.81
7,G18I,2.4
8,G18Y,2.94
9,G18Q,3.68
10,G18M,2.79
11,V12H,3.66
12,V12S,3.19
13,V12I,3.58
14,V12P,3.69
15,V12Q,3.5
16,V12W,2.92
17,V12A,2.84
18,T17P,3.5
19,P4Y,2.35
20,P4I,2.58
21,P4N,2.69
22,P4Q,2.88
23,Q2P,3.44
24,Q2K,4.18

row,Variant,protein stability index
1,Q2W,2.95
2,Q2L,2.5
3,Y1M,4.18
4,Y1I,4.33
5,Y1E,4.83
6,G21A,3.25
7,G21W,2.17
8,G21Y,2.68
9,G21I,3.15
10,G21E,3.13
11,G21R,3.32
12,Q10T,3.39
13,Q10E,3.82
14,Q10K,3.3
15,Q10N,3.85
16,R23S,2.59
17,R23N,3.29
18,R23L,3.12
19,R8L,1.91
20,R8W,3.27
21,R8T,2.97
22,R8D,3.55
23,R8N,3.45
24,G5T,3.22

row,Variant,protein stability index
1,G5K,2.94
2,G5Q,4.42
3,G5E,3.74
4,G5F,1.92
5,V15C,2.82
6,V15M,2.24
7,V15Y,2.92
8,L9R,3.9
9,L9N,3.61
10,L9I,2.97
11,L9H,2.81
12,L9Y,3.06
13,L9T,4.27
14,L9F,2.67
15,E11M,2.81
16,E11K,2.3
17,T6Q,3.4
18,T6C,2.32
19,R24S,3.45
20,R24C,3.18
21,R24N,3.43
22,G22S,3.05
23,G22E,3.4
24,G22R,2.7

row,Variant,protein stability index
1,G22D,3.39
2,G22Q,3.48
3,G3Q,3.11
4,G3T,3.52
5,G3Y,2.48
6,G3A,3.31
7,G3H,3.81
8,G14D,4.18
9,G14T,2.66
10,G14R,3.37
11,G14Y,2.98
12,G14S,3.14
13,P20E,3.3
14,P20A,3.22
15,R7P,3.5
16,R7V,3.03
17,R7I,3.57
18,G19P,3.66
19,G19T,3.44
20,G19L,2.81
21,G19S,2.81
22,G19F,3.33
23,L13H,3.94
24,L13P,3.44

# Variants of: B2
# Test: as above
# Details: c terminus: a fixed tail appended
row,Variant,protein stability index
1,L19M,3.15
2,L19F,2.68
3,L19W,1.8
4,L19D,4.25
5,L19C,3.36
6,L19G,3.88
7,L19S,3.08
8,L19H,3.31
9,L19R,3.79
10,L19Q,3.92
11,L19A,3.67
12,L19P,2.74
13,L19K,3.35
14,L19N,3.76
15,L19Y,2.36
16,L19E,4.75
17,L19T,3.6
18,L19I,2.39
19,L19V,2.88
20,K13L,2.38
21,K13F,2.25
22,K13C,2.71
23,K13R,2.55
24,K13A,3.93

row,Variant,protein stability index
1,K13W,2.65
2,K13N,3.35
3,K13T,2.06
4,K13I,1.95
5,K13E,4.33
6,K13Q,3.06
7,K13M,2.48
8,K13D,4.59
9,K13S,2.82
10,K13P,4.37
11,K13Y,1.84
12,K13H,3.08
13,K13G,4.57
14,K13V,2.8
15,A12W,2.65
16,A12K,4.32
17,A12Y,3.52
18,A12Q,4.25
19,A12S,4.29
20,A12M,2.36
21,A12L,3.17
22,A12V,3.48
23,A12P,3.73
24,A12T,4.08

row,Variant,protein stability index
1,A12N,4.38
2,S20Q,2.91
3,S20P,3.18
4,S20T,2.74
5,S20V,2.88
6,S20M,2.58
7,S20L,3.38
8,S20W,1.82
9,S20N,3.07
10,S20A,2.63
11,S20R,3.26
12,S20H,2.73
13,S20I,2.81
14,S20K,3.6
15,S20Y,1.93
16,S20F,2.29
17,S20C,2.21
18,S20D,2.71
19,S20E,2.04
20,S20G,2.7
21,M23Y,1.6
22,M23I,2.6
23,M23F,2.42
